Test results: patent US11066455B2, “Tmem100 peptides and variants thereof and their use in treating or preventing diseases or conditions” (The Johns Hopkins University, priority 2014, dated 2021)
* marks the point of attachment. Myristoyl = CCCCCCCCCCCCCC(=O)*

Experiments:
[1] = test system: neuropathic mechanical hypersensitivity in SNL rats; type: in vivo, rat; conditions: intrathecal 10 μl; h-T100 10-100 μM, HC-030031 10-200 μM, scrambled 100 μM
From the text: An modified L5 SNL model was produced as described in previously (He et al., 2014; Shechter et al., 2013). Male Sprague-Dawley rats (200-350 g, Harlan, Indianapolis, Ind.) were anesthetized with 2% isoflurane. The left L5 spinal nerve was ligated with a 6-0 silk suture and cut distally. The muscle layer was closed with 4-0 chromic gut suture and the skin closed with metal clips. For intrathecal catheter implantation, a small slit was cut in the atlanto-occipital membrane of rats, into which a saline-filled piece of PE-10 tubing (6-7 cm) was inserted (He et al., 2014). […] Hypersensitivity to punctuate mechanical stimulation was determined with the up-down method by using a series of von Frey filaments (0.38-15.1 g) applied for 4-6 seconds to the test area on the plantar surface of the hindpaw (Chaplan et al., 1994; He et al., 2014). The PWT was determined according to the formula provided by Dixon (Dixon, 1980). […] HC-030031 was purchased from Tocris Bioscience (Bristol, UK). Both drugs were dissolved in 10% dimethylsulfoxide (DMSO), 5% Tween 80 and 85% sterile saline solution. The final working solution which was injected by intrathecal route contained <1% DMSO. The number of animals used in each study was based on experience with similar studies and power analysis calculations. Animals were randomized to the different treatment groups and blinded the experimenter to drug treatment to reduce selection and observation bias. After the experiments were completed, no data point was excluded. STATISTICA 6.0 software (StatSoft, Inc., Tulsa, Okla.) was used to conduct all statistical analyses. The Tukey honestly significant difference (HSD) post-hoc test was used to compare specific data points. Bonferroni correction was applied for multiple comparisons. Two-tailed tests were performed, and data are expressed as mean±SEM; P<0.05 was considered significant in all tests.
The sequence from the last 28 amino acids of the C-terminus of the Tmem100-3Q mutant protein was synthesized and myristoylated at its N-terminus (myr-[…]-COOH) (SEQ ID NO: 8) by Twentyfirst Century Biochemicals. […] For the calcium imaging assay, the peptides were added to the calcium imaging buffer with a final concentration of 200 nM and incubated for at least […] at room temperature. For the mice behavioral assays, the peptides (5 μL, 2 mM) were injected subcutaneously in the hindpaw at least 30 minutes before testing. For the rat behavior assays, human T100-3Q (h-T100), a palmitoylated cell permeable peptide mutated based on the C terminus of human sequence in Tmem100, was applied. The sequence is Palmitoyl-[…]-COOH (SEQ ID NO: 7).

[2] = target: TRPA1 (expressed in heterologous cells: CHO, HEK293T); test: cell-based or functional assay
Chain of TRPA1 (expressed in heterologous cells: CHO, HEK293T) (O75762 whole entry): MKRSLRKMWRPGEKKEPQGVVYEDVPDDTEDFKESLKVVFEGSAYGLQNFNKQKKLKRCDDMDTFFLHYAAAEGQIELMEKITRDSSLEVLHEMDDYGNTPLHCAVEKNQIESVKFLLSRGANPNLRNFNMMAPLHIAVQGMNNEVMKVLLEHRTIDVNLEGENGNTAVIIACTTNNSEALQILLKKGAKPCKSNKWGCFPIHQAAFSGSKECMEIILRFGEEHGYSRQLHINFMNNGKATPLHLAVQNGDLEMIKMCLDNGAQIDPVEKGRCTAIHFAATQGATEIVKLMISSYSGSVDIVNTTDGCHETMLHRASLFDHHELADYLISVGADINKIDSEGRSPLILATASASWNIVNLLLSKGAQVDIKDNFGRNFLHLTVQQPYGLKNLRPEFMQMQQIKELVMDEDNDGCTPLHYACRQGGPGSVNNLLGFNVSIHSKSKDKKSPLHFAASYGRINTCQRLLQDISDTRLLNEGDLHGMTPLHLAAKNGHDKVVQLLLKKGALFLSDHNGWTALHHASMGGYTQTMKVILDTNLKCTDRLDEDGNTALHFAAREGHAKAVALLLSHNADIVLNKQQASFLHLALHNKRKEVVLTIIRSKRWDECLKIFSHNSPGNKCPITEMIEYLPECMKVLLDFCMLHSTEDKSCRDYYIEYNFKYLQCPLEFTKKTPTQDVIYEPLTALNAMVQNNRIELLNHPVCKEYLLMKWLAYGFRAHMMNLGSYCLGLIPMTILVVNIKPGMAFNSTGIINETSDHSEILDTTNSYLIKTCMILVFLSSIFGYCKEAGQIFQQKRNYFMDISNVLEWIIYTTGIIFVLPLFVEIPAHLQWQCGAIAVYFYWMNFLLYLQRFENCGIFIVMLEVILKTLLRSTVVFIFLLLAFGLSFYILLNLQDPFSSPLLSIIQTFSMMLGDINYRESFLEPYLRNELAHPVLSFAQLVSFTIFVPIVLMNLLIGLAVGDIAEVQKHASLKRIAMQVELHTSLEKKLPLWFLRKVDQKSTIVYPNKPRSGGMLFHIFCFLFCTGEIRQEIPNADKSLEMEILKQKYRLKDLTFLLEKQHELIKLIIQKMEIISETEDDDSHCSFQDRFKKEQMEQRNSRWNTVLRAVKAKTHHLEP

[3] = target: TRPV1 (expressed in heterologous cells: CHO, HEK293T); test: cell-based or functional assay
TRPA1 = test system: T1, TRPA1; test: MO-gated whole-cell voltage clamp in CHO cells expressing TRPA1+TRPV1; type: cell-based; conditions: Vh=-60 mV; TRPA1+TRPV1+Tmem100-3Q (1:1:4) CHO cells
T1 construct: MO (10 μM)-evoked Ca2+ influx; other: TRPA1+TRPV1+Tmem100-3Q (1:1:4) CHO cells; MO (10 μM)-gated whole-cell current density; other: Vh=-60 mV; TRPA1+TRPV1+Tmem100-3Q (1:1:4) CHO cells; MO (10 μM)-induced single-channel activity (NPo); co-expressed with TRPA1+TRPV1 (1:1:4) in CHO cells
Method: Recordings were made in cell-attached single-channel or whole-cell voltage clamp configurations at 22-24° C. from the somata of small-to-medium mouse DRG neurons (15-35 pF) or CHO cells. For whole-cell configuration, holding potential (Vh) is −60 mV. Data were acquired and analyzed using an Axopatch 200B amplifier and pCLAMP9.0 software (Molecular Devices, Sunnyvale, Calif.). Borosilicate pipettes (Sutter, Novato, Calif.) were pulled and polished to resistances of 3-5 MΩ (in whole-cell and single-channel pipette solutions). Access resistance (Rs) was compensated (40-80%) when appropriate up to the value 7-10 MΩ for whole-cell configuration. Whole-cell recording data were filtered at 0.5 kHz and sampled at 2 kHz. Single-channels currents were filtered with an 8-pole, low pass Bessel filter at 0.1 kHz and sampled at 0.5 kHz, since dwelling time (τ) of the TRPA1 and TRPV1 single-currents were >0.5 sec. Whole-cell recorded data were rejected when Rs changed >20% during recording, leak currents were >100 pA, or input resistance was <200 MΩ.
Standard external solution (SES) for whole-cell patch recording contained (in mM): 140 NaCl, 5 KCl, 2 CaCl2, 1 MgCl2, 10 D-glucose and 10 HEPES, pH 7.4. Vehicle, which is 0.01% DMSO, was added to external solutions. […] The baseline activities of the cells were recorded for 1-2 min prior drug applications. […]

In the case of “myr-QRVLEQVLQNWSRRANVKQAQKFQVKCT-COOH (Myristoyl-QRVLEQVLQNWSRRANVKQAQKFQVKCT-OH; SMILES CCCCCCCCCCCCCC(=O)N[C@@H](CCC(N)=O)C(=O)N[C@@H](CCCNC(=N)N)C(=O)N[C@H](C(=O)N[C@@H](CC(C)C)C(=O)N[C@@H](CCC(=O)O)C(=O)N[C@@H](CCC(N)=O)C(=O)N[C@H](C(=O)N[C@@H](CC(C)C)C(=O)N[C@@H](CCC(N)=O)C(=O)N[C@@H](CC(N)=O)C(=O)N[C@@H](Cc1c[nH]c2ccccc12)C(=O)N[C@@H](CO)C(=O)N[C@@H](CCCNC(=N)N)C(=O)N[C@@H](CCCNC(=N)N)C(=O)N[C@@H](C)C(=O)N[C@@H](CC(N)=O)C(=O)N[C@H](C(=O)N[C@@H](CCCCN)C(=O)N[C@@H](CCC(N)=O)C(=O)N[C@@H](C)C(=O)N[C@@H](CCC(N)=O)C(=O)N[C@@H](CCCCN)C(=O)N[C@@H](Cc1ccccc1)C(=O)N[C@@H](CCC(N)=O)C(=O)N[C@H](C(=O)N[C@@H](CCCCN)C(=O)N[C@@H](CS)C(=O)N[C@H](C(=O)O)[C@@H](C)O)C(C)C)C(C)C)C(C)C)C(C)C) [scrambled]”, the “ipsilateral paw withdrawal threshold (PWT) vs pre-drug” value [1] is reported as “no effect”.

B1: Tmem100-3Q mutant (full-length, mouse) (protein)
chain: MTEESTKENLGAPKSPTPVTMEKNPKREVVVTTGPLVSEVQLMAATGGAELSCYRCIIPFAVVVFITGIVVTAVAYSFNSHGSIISIFGLVLLSSGLFLLASSALCWKVRQRNKKVQQQESQTALVVNQRCLFA
In the case of B1, the MO (10 µM)-induced single-channel activity (NPo), CHO cells [2] is reported as 1.05, the CAP (100 nM)-induced single-channel activity (NPo), CHO cells [3] is reported as 0.73 and the “MO (10 μM)-gated whole-cell current density” value (TRPA1) is reported as 39.16±12.5 pA/pF.
